{"source": "patent US20020081570A1", "about": "“System to detect protein-protein interactions” (priority 2000, published 2002)", "molecular_target": "T1, syntaxin 1A (Homo sapiens, UniProt Q16623)", "T1 construct": "expressed in transfected cells; host or cells: yeast (two-hybrid; cotransformations and yeast matings)", "T1 sequence (Q16623 whole entry, species assumed)": "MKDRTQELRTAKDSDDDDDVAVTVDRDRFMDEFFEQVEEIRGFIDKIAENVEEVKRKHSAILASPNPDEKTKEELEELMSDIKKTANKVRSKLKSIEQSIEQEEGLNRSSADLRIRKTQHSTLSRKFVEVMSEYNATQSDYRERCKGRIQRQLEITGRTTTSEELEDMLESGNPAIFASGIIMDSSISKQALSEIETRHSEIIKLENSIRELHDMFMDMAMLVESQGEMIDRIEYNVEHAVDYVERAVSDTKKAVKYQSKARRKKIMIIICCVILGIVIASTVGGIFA", "test": "yeast two-hybrid screen (cotransformations and yeast matings)", "format": "binding", "conditions": "yeast two hybrid system", "description": "The present inventors completed a yeast two-hybrid screen using Syt 1, syntaxin 1A and synaptobrevin 2 (Vamp 2). Recombinant and native Syt-1 and syntaxin 1A were shown previously to interact in a calcium dependent manner. […] Screens performed using two different approaches—cotransformations and yeast matings—gave identical findings."}
{"substance": "synaptobrevin: synaptobrevin 2 (Vamp 2) protein used in yeast two-hybrid screen", "values": [{"measurement": "direct interaction with syntaxin 1A", "value": "interact directly"}]}
{"substance": "Syt-1: synaptotagmin I protein used in yeast two-hybrid screen", "values": [{"measurement": "direct interaction with syntaxin 1A", "value": "did not"}]}
